This passage reports Kd results from the Immune Epitope Database (IEDB).

One experiment deals with HLA-A*29:02. As to the kind of experiment: IEDB peptide-MHC binding, purified MHC/competitive/radioactivity; filed as Kd, often an IC50 or EC50 that approximates it; ≥ and ≤ were set here for values at or beyond the usual limits of such assays.
Experiment [1] has as its target HLA-A*26:01. The description is as above.
Another experiment deals with HLA-A*32:01. The experiment is described as above. Particulars: source organism: Mammarenavirus guanaritoense.
Another experiment addresses HLA-A*30:02. The description is as above.
The target of another experiment is HLA-A*30:01. Described as above. Particulars: source organism: Mammarenavirus guanaritoense.
In a further experiment the target is HLA-A*01:01. Described as above.
A further experiment has as its target HLA-B*51:01. Described as above.
Another experiment deals with HLA-B*53:01. The description is as above.
The target of a further experiment is HLA-B*35:01. Described as above.
The next experiment has as its target HLA-A*24:02. The description is as above.
Another experiment concerns the target HLA-A*23:01. The experiment is described as above.
Experiment [2] deals with HLA-A*26:01. As to the kind of experiment: IEDB peptide-MHC binding, purified MHC/direct/fluorescence; filed as Kd, often an IC50 or EC50 that approximates it; ≥ and ≤ were set here for values at or beyond the usual limits of such assays. The note with it: source organism: West Nile virus.
For another experiment, the target named is HLA-A*33:01. As to the kind of experiment: IEDB peptide-MHC binding, purified MHC/competitive/radioactivity; filed as Kd, often an IC50 or EC50 that approximates it; ≥ and ≤ were set here for values at or beyond the usual limits of such assays. The note with it: source organism: SARS coronavirus Tor2.
The target in another experiment is HLA-A*11:01. Described as above. The note with it: source organism: SARS coronavirus Tor2.
Another experiment addresses HLA-A*31:01. Described as above. Particulars: source organism: SARS coronavirus Tor2.
In the next experiment the target is HLA-A*03:01. Described as above. Particulars: source organism: SARS coronavirus Tor2.
The target of a further experiment is HLA-A*68:01. The experiment is described as above. The note with it: source organism: SARS coronavirus Tor2.
The mark [3] stands for this setting: source organism: Mammarenavirus guanaritoense.
Where [4] appears, read: source organism: Dengue virus 3 Martinique/1243/1999.
Where [5] appears, read: source organism: Dengue virus 3 Singapore/8120/1995.
[6] abbreviates: source organism: SARS coronavirus Tor2.
The mark [7] stands for this setting: source organism: Dengue virus 4 Philippines/H241/1956.
Where [8] appears, read: source organism: Dengue virus 4 Dominica/814669/1981.
[9] abbreviates: source organism: Dengue virus 1 Brazil/97-11/1997.
Setting [10] is: source organism: Mammarenavirus lassaense.

Usually Kd stands for the equilibrium constant for the complex coming apart. As to HLSRTVVYSY, the Kd in the experiment with HLA-A*29:02 (setting [3]) worked out at 1210 nM; with HLA-A*26:01 [1] (setting [3]), 10600 nM; with HLA-A*32:01, 671 nM; with HLA-A*30:02 (setting [3]), 63.8 nM; with HLA-A*30:01 it was 525 nM; with HLA-A*01:01 (setting [3]) it was 1330 nM.

Take LPETMETLLL: the Kd stood at 1170 nM in the experiment with HLA-B*51:01 (setting [4]), 24.3 nM with HLA-B*53:01 (setting [4]) and 1210 nM with HLA-B*35:01 (setting [4]).

Regarding LWMADVPLQW, the Kd is 24.3 nM in the experiment with HLA-A*24:02 (setting [5]) and 39.7 nM in the experiment with HLA-A*23:01 (setting [5]).

Regarding SYEHQTPFEI, the Kd in the experiment with HLA-A*29:02 (setting [6]) worked out at 7160 nM; with HLA-A*26:01 [1] (setting [6]) it was 10400 nM; in the experiment with HLA-A*24:02 (setting [6]), 1240 nM; with HLA-A*30:02 (setting [6]), 7060 nM; with HLA-A*01:01 (setting [6]), 3680 nM; in the experiment with HLA-A*23:01 (setting [6]) it was 945 nM.

Sequence HTNEDDSNF had a Kd with HLA-A*26:01 [2] of 1900 nM.

Turning to CYSQVNPTTL, the Kd is 326 nM with HLA-A*24:02 (setting [7]) and 1330 nM with HLA-A*23:01 (setting [7]).

As for IPHDLMELI, the Kd with HLA-B*51:01 (setting [8]) was 16.8 nM; with HLA-B*53:01 (setting [8]) it was 6.5 nM.

LPLPWAAGAD: the results for the Kd in the experiment with HLA-B*51:01 (setting [7]) and with HLA-B*35:01 (setting [7]) were at least 22900 nM and 4140 nM, respectively.

For the sequence AYATAQEAY, the dissociation constant (Kd) was 642 nM with HLA-A*29:02 (setting [6]); at least 43100 nM in the experiment with HLA-A*26:01 [1] (setting [6]); at least 53900 nM with HLA-A*24:02 (setting [6]); 50.6 nM with HLA-A*30:02 (setting [6]); at least 98000 nM with HLA-A*01:01 (setting [6]); at least 77800 nM with HLA-A*23:01 (setting [6]).

In the case of AYMLFTKFFY, the Kd is 0.00115 nM with HLA-A*29:02 (setting [6]); 83.5 nM with HLA-A*26:01 [1] (setting [6]); 0.241 nM in the experiment with HLA-A*24:02 (setting [6]); 339 nM with HLA-A*01:01 (setting [6]); 0.115 nM with HLA-A*23:01 (setting [6]).

Regarding ATVAYFNMVY, the Kd is 0.00633 nM in the experiment with HLA-A*29:02 (setting [6]); at least 70000 nM with HLA-A*33:01; 979 nM with HLA-A*26:01 [1] (setting [6]); 74.2 nM with HLA-A*11:01; 2330 nM with HLA-A*31:01; 269 nM in the experiment with HLA-A*03:01. Moreover, the Kd with HLA-A*24:02 (setting [6]) is 13000 nM; with HLA-A*68:01, 549 nM; in the experiment with HLA-A*30:02 (setting [6]), 1210 nM; with HLA-A*01:01 (setting [6]), 893 nM; in the experiment with HLA-A*23:01 (setting [6]), at least 30900 nM.

On to MYLKLRSETL, for which the Kd was 17700 nM with HLA-A*29:02 (setting [6]); 7590 nM with HLA-A*26:01 [1] (setting [6]); 164 nM with HLA-A*24:02 (setting [6]); 18200 nM with HLA-A*30:02 (setting [6]); 7220 nM in the experiment with HLA-A*01:01 (setting [6]); 44.5 nM in the experiment with HLA-A*23:01 (setting [6]).

As for FLDGVNLVA, the Kd with HLA-A*29:02 (setting [3]) is 5430 nM; with HLA-A*26:01 [1] (setting [3]), at least 77900 nM; in the experiment with HLA-A*24:02 (setting [3]) it was at least 77500 nM; in the experiment with HLA-A*30:02 (setting [3]) it was 17700 nM; in the experiment with HLA-A*01:01 (setting [3]) it was 9.76 nM; with HLA-A*23:01 (setting [3]), 8810 nM.

On to SYKVASEGF, for which the Kd came to 209 nM in the experiment with HLA-A*24:02 (setting [9]) and 626 nM with HLA-A*23:01 (setting [9]).

Take QYNLSHSYAV: the dissociation constant Kd was 1300 nM with HLA-A*29:02 (setting [10]); at least 69700 nM in the experiment with HLA-A*26:01 [1] (setting [10]); 1950 nM in the experiment with HLA-A*24:02 (setting [10]); 3330 nM with HLA-A*30:02 (setting [10]); at least 70400 nM with HLA-A*01:01 (setting [10]); 346 nM in the experiment with HLA-A*23:01 (setting [10]).

Turning to QWNLVIGFLF, the dissociation constant (Kd) is 39.5 nM with HLA-A*29:02 (setting [6]); at least 69700 nM with HLA-A*26:01 [1] (setting [6]); 5.64 nM with HLA-A*24:02 (setting [6]); at least 26300 nM with HLA-A*30:02 (setting [6]); at least 30600 nM with HLA-A*01:01 (setting [6]); 2.14 nM with HLA-A*23:01 (setting [6]).

Turning to TCDWTNAGDY, the dissociation constant (Kd) with HLA-A*29:02 (setting [6]) was 2020 nM; with HLA-A*26:01 [1] (setting [6]) it was at least 25000 nM; in the experiment with HLA-A*24:02 (setting [6]), at least 70300 nM; with HLA-A*30:02 (setting [6]), 672 nM; with HLA-A*01:01 (setting [6]) it was 133 nM; with HLA-A*23:01 (setting [6]) it was at least 70000 nM.

Regarding LMKITAEWLW, the Kd with HLA-B*53:01 (source organism: Dengue virus 2 Jamaica/1409/1983) is 1410 nM.
